# Biological target: human mast cell β-tryptase (human) (UniProt Q15661)
# Assay: sandwich ELISA, luminescence (CSPD): rabbit anti-human tryptase coated as capture, human tryptase titrated, AP-labeled G3 as detection; EC50 is of the tryptase concentration
# UniProt Q15661, sequence (Q15661 31-275 limits assumed): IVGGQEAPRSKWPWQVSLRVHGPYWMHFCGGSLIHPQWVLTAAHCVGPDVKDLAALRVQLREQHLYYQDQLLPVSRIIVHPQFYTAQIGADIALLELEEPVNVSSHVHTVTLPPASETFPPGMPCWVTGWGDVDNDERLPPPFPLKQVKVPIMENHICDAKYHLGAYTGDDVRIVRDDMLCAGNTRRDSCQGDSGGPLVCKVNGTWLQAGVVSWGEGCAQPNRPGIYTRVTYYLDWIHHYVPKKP
substance,measurement,value
"anti-tryptase antibody G3 (sc-33676; Santa Cruz Biotechnology, Inc.), alkaline phosphatase conjugated",EC50,0.065 µg/mL

# Source: patent US20140199709A1
